From IntAct's records for PubMed 32296183

B1: Ceroid-lipofuscinosis neuronal protein 6 (Homo sapiens), Q9NWW5 (parent)
chain: MEATRRRQHLGATGGPGAQLGASFLQARHGSVSADEAARTAPFHLDLWFYFTLQNWVLDFGRPIAMLVFPLEWFPLNKPSVGDYFHMAYNVITPFLLLKLIERSPRTLPRSITYVSIIIFIMGASIHLVGDSVNHRLLFSGYQHHLSVRENPIIKNLKPETLIDSFELLYYYDEYLGHCMWYIPFFLILFMYFSGCFTASKAESLIPGPALLLVAPSGLYYWYLVTEGQIFILFIFTFFAMLALVLHQKRKRLFLDSNGLFLFSSFALTLLLVALWVAWLWNDPVLRKKYPGVIYVPEPWAFYTLHVSSRH
partner: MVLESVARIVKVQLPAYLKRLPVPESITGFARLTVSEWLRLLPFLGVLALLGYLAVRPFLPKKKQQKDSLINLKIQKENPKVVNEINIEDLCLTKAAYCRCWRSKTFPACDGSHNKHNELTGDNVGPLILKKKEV
B2: Ceroid-lipofuscinosis neuronal protein 6 (Homo sapiens), Q9NWW5 (parent)
chain: B1 chain
partner: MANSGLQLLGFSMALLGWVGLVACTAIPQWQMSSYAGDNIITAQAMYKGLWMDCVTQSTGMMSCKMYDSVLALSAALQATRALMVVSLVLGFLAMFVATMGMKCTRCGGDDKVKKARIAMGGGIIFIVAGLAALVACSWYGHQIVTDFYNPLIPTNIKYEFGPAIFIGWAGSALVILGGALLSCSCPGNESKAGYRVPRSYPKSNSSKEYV
B3: Succinate--CoA ligase [ADP-forming] subunit beta, mitochondrial (Homo sapiens), Q9P2R7 (parent)
chain: MAASMFYGRLVAVATLRNHRPRTAQRAAAQVLGSSGLFNNHGLQVQQQQQRNLSLHEYMSMELLQEAGVSVPKGYVAKSPDEAYAIAKKLGSKDVVIKAQVLAGGRGKGTFESGLKGGVKIVFSPEEAKAVSSQMIGKKLFTKQTGEKGRICNQVLVCERKYPRREYYFAITMERSFQGPVLIGSSHGGVNIEDVAAESPEAIIKEPIDIEEGIKKEQALQLAQKMGFPPNIVESAAENMVKLYSLFLKYDATMIEINPMVEDSDGAVLCMDAKINFDSNSAYRQKKIFDLQDWTQEDERDKDAAKANLNYIGLDGNIGCLVNGAGLAMATMDIIKLHGGTPANFLDVGGGATVHQVTEAFKLITSDKKVLAILVNIFGGIMRCDVIAQGIVMAVKDLEIKIPVVVRLQGTRVDDAKALIADSGLKILACDDLDEAARMVVKLSEIVTLAKQAHVDVKFQLPI
partner: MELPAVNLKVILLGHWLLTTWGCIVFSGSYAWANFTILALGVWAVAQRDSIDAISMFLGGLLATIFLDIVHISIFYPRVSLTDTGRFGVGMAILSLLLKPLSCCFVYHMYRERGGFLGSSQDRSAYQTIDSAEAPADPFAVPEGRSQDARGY
B4: Very-long-chain enoyl-CoA reductase (Homo sapiens), Q9NZ01 (parent)
chain: MKHYEVEILDAKTREKLCFLDKVEPHATIAEIKNLFTKTHPQWYPARQSLRLDPKGKSLKDEDVLQKLPVGTTATLYFRDLGAQISWVTVFLTEYAGPLFIYLLFYFRVPFIYGHKYDFTSSRHTVVHLACICHSFHYIKRLLETLFVHRFSHGTMPLRNIFKNCTYYWGFAAWMAYYINHPLYTPPTYGAQQVKLALAIFVICQLGNFSIHMALRDLRPAGSKTRKIPYPTKNPFTWLFLLVSCPNYTYEVGSWIGFAIMTQCLPVALFSLVGFTQMTIWAKGKHRSYLKEFRDYPPLRMPIIPFLL
partner: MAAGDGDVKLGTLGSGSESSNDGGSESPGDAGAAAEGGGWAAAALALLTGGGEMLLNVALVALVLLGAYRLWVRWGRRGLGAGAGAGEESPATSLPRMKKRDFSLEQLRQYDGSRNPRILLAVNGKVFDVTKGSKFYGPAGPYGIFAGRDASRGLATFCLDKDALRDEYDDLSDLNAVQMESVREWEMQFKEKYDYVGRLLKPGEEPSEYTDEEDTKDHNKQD
B5: Golgi SNAP receptor complex member 2 (Homo sapiens), O14653 (parent)
chain: MDPLFQQTHKQVHEIQSCMGRLETADKQSVHIVENEIQASIDQIFSRLERLEILSSKEPPNKRQNARLRVDQLKYDVQHLQTALRNFQHRRHAREQQERQREELLSRTFTTNDSDTTIPMDESLQFNSSLQKVHNGMDDLILDGHNILDGLRTQRLTLKGTQKKILDIANMLGLSNTVMRLIEKRAFQDKYFMIGGMLLTCVVMFLVVQYLT
partner: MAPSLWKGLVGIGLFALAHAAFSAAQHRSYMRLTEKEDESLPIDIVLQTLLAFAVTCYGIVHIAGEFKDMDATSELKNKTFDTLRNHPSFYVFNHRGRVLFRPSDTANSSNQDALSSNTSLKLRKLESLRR
B6: Golgi SNAP receptor complex member 2 (Homo sapiens), O14653 (parent)
chain: B5 chain
partner: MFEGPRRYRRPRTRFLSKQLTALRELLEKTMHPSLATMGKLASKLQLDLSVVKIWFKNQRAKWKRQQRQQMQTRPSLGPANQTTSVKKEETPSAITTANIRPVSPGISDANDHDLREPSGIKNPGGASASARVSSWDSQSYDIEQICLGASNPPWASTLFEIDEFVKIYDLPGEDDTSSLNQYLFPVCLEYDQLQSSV
B7: Dolichol kinase (Homo sapiens), Q9UPQ8 (parent)
chain: MTRECPSPAPGPGAPLSGSVLAEAAVVFAVVLSIHATVWDRYSWCAVALAVQAFYVQYKWDRLLQQGSAVFQFRMSANSGLLPASMVMPLLGLVMKERCQTAGNPFFERFGIVVAATGMAVALFSSVLALGITRPVPTNTCVILGLAGGVIIYIMKHSLSVGEVIEVLEVLLIFVYLNMILLYLLPRCFTPGEALLVLGGISFVLNQLIKRSLTLVESQGDPVDFFLLVVVVGMVLMGIFFSTLFVFMDSGTWASSIFFHLMTCVLSLGVVLPWLHRLIRRNPLLWLLQFLFQTDTRIYLLAYWSLLATLACLVVLYQNAKRSSSESKKHQAPTIARKYFHLIVVATYIPGIIFDRPLLYVAATVCLAVFIFLEYVRYFRIKPLGHTLRSFLSLFLDERDSGPLILTHIYLLLGMSLPIWLIPRPCTQKGSLGGARALVPYAGVLAVGVGDTVASIFGSTMGEIRWPGTKKTFEGTMTSIFAQIISVALILIFDSGVDLNYSYAWILGSISTVSLLEAYTTQIDNLLLPLYLLILLMA
partner: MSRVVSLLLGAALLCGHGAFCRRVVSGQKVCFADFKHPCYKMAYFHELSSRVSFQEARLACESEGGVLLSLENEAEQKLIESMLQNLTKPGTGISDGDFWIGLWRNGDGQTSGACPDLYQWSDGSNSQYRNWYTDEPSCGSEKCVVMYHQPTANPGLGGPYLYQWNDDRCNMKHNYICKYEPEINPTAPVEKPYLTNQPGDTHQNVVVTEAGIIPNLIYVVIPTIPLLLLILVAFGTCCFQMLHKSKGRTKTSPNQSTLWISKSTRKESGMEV
B8: Dolichol kinase (Homo sapiens), Q9UPQ8 (parent)
chain: B7 chain
partner: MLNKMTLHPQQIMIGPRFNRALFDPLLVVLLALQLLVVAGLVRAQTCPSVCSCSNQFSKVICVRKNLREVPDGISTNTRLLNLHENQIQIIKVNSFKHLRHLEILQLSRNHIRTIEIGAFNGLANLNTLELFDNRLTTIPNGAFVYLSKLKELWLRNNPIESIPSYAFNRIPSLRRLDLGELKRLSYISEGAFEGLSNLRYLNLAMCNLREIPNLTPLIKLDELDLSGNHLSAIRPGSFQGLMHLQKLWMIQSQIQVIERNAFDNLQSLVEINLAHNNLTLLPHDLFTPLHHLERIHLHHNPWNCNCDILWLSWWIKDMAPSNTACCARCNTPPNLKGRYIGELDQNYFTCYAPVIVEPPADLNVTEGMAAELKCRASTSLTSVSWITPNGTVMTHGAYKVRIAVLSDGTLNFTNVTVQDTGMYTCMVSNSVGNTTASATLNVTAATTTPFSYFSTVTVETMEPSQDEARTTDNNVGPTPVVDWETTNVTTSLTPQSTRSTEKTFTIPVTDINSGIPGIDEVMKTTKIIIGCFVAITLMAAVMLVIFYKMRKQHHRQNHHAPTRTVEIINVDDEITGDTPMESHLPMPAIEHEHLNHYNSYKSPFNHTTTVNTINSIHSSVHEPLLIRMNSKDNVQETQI
B9: Very-long-chain enoyl-CoA reductase (Homo sapiens), Q9NZ01 (parent)
chain: B4 chain
partner: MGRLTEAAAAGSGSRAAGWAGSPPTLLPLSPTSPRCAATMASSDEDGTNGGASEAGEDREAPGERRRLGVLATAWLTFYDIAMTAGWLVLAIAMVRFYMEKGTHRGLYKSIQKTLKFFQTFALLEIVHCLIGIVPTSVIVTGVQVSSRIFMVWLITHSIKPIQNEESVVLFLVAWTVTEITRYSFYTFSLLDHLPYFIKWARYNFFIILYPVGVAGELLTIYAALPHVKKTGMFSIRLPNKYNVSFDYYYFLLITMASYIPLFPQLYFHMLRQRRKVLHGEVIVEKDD

Variants of: B1
Settings: with cisd2_human CISD2, Q8N5K1

Variant | effect of a mutation on the interaction
R6T | with no effect

Variants of: B2
Settings: with cld7_human CLDN7, O95471

Variant | effect of a mutation on the interaction
R6T | disrupting interaction strength
G123D | with no effect

Variants of: B3
Settings: with AGTRAP

Variant | effect of a mutation on the interaction
G118R | disrupting interaction strength
D251N | disrupting interaction strength

Variants of: B4
Settings: with pgrc2_human PGRMC2, O15173

Variant | effect of a mutation on the interaction
P182L | with no effect

Variants of: B5
Settings: with emc5_human MMGT1, Q8N4V1

Variant | effect of a mutation on the interaction
G144W | with no effect

Variants of: B6
Settings: with leutx_human LEUTX

Variant | effect of a mutation on the interaction
G144W | with no effect

Variants of: B7
Settings: with chodl_human CHODL

Variant | effect of a mutation on the interaction
Y441S | disrupting interaction strength

Variants of: B8
Settings: with lrc4c_human LRRC4C

Variant | effect of a mutation on the interaction
Y441S | disrupting interaction strength

Variants of: B9
Settings: with hacd1_human HACD1, B0YJ81

Variant | effect of a mutation on the interaction
P182L | disrupting interaction strength
